System: MS2 coat protein
Assay: apparent KD of MS2 coat protein; designed switch direction (-1 OFF switch, 1 ON switch): -1; higher = weaker reporter binding
In short: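 The apparent KD reported per design is the median over clusters of curve fits to normalised cluster fluorescence. The RNA switches were transcribed on Illumina chips by stalled E. coli RNA polymerase. SNAP-549-labelled MS2 coat protein was titrated from 0.7 or 1.5 nM, doubling up to 3 µM, in Tris-HCl pH 7.5 buffer containing KCl, MgCl2, BSA, DTT, tRNA and Tween-20, with no input, 200 uM small-molecule ligand, or an oligonucleotide input.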

[1] = Eterna round: R95, input ligand: microRNA oligo, concentration not stated
[2] = Eterna round: R95, input ligand: FMN 200 uM
[3] = Eterna round: R95, input ligand: none
[4] = input ligand: microRNA oligo, concentration not stated

Row | Sequence | apparent KD of MS2 coat protein (input ligand: FMN 200 uM) | apparent KD of MS2 coat protein (input ligand: none) | apparent KD of MS2 coat protein [1] | further results
1 | GAGUACAGAGGAUAUACAUGAGGAUCACCCAUGUGUUUCAGCUAGGAGACUAGCGAAAGUAGAAGGCUGUACUU [salish99_ex3_r4_005] (Eterna round: R97, puzzle: Exclusion 3) | 25.7 nM | 8.49 nM |  | 
2 | GAGUACUGAGGAUAUACAUGAGGAUCACCCAUGUGUUCCAACUAGGAAUCUAGAAUGUGUAGAAGGCAGUGCUG [salish99_ex3_r4_703] (Eterna round: R97, puzzle: Exclusion 3) | 298 nM | 262 nM |  | 
3 | GAGUAGGGAGGAUAUACGUGCUCAAUCCCGGAAAGCGGGAAACAUGAGGAUCACCCAUGUAGAAGGCCCAUAAA [Riisen] (puzzle: Exclusion 2) |  |  | 68.4 nM | 
4 | GAGUAGUAAGGAUAUGUCUCUGGUGGCUUCGGUCACUAGAGGCAGAAGGUACAUGAGGAUCACCCAUGUUCCUC [ExDelusion 7 - Jieux - Exclusion 4] (Eterna round: R97, puzzle: Exclusion 4) | 220 nM | 55.2 nM |  | 
5 | GAGUGACAUGAGGAUCACCCAUGUAAGGAUAUACGGUUGGUAGAGAGAGGGAAAAGAGGUAGAAGGUACGAAGG [JR_Exclu1_Sub056] (puzzle: Exclusion 1) |  |  | 56 nM | apparent KD of MS2 coat protein [2]: 43.9 nM; apparent KD of MS2 coat protein [3]: 76.2 nM
6 | GAGUGACAUGAGGAUCACCCAUGUGAGGAUAUCCGAUGGACCAAAUUAACAAUAGAAGGGAGAAGGCACAUAAA [Exclusion 1 V7] (puzzle: Exclusion 1) |  |  | 127 nM | apparent KD of MS2 coat protein [2]: 162 nM; apparent KD of MS2 coat protein [3]: 131 nM
7 | GAGUGACAUGAGGAUCACCCAUGUGAGGAUAUCGGACGGACCAAAUUAACAUCCGCCGCGAGAAGGCACAUCGG [Exclusion 1 V22] (puzzle: Exclusion 1) |  |  | 69.4 nM | 
8 | GAGUGACAUGAGGAUCACCCAUGUGAGGAUAUGCGAUGGACCAAAUUAACAAUAGAAGGCAGAAGGCGCAUAAA [Exclusion 1 V9] (puzzle: Exclusion 1) |  |  | 34.8 nM | apparent KD of MS2 coat protein [2]: 41.4 nM; apparent KD of MS2 coat protein [3]: 41.1 nM
9 | GAGUGAUAAGGAUAUACAUGAGGAUCACCCAUGUGCUUCAGCUAGGAGACUAGCAUUGGUAGAAGGUAUUACUC [Mod of lroppy 11 - Jieux - Exclusion 3] (Eterna round: R97, puzzle: Exclusion 3) | 54.3 nM | 18.7 nM |  | 
10 | GAGUGCUGAGGAUAUACAUGAGGAUCACCCAUGUGCUUCAGCUAGGAGACUAGCAUUGGUAGAAGGCAGUACUC [LRO-Excl3-01] (puzzle: Exclusion 3) |  |  | 11.1 nM | 
11 | GAGUGCUGAGGAUAUACAUGAGGAUCACCCAUGUGCUUCAGCUAGGAGACUAGCAUUGGUAGAAGGCAGUACUC [Mod of lroppy - Jieux - Exclusion 3] (Eterna round: R97, puzzle: Exclusion 3) | 76.8 nM | 12.4 nM |  | 
12 | GAGUGCUGAGGAUAUACAUGAGGAUCACCCAUGUGCUUCAGCUAGGAGACUAGCAUUGGUAGAAGGUAGUACUC [LRO-Excl3-02] (puzzle: Exclusion 3) |  |  | 10.6 nM | 
13 | GAGUGCUGAGGAUAUACAUGAGGAUCACCCAUGUGCUUCAGCUAGGAGACUAGCAUUGGUAGAAGGUAGUACUC [Mod of lroppy 4 - Jieux - Exclusion 3] (Eterna round: R97, puzzle: Exclusion 3) | 19.9 nM | 13.2 nM |  | 
14 | GAGUGCUGAGGAUAUACAUGAGGAUCACCCAUGUGCUUCAGCUAGGAGACUAGUAUCAGUAGAAGGCAGUACUC [Mod of lroppy 20 - Jieux - Exclusion 3] (Eterna round: R97, puzzle: Exclusion 3) | 57.3 nM | 14.7 nM |  | 
15 | GAGUGCUUAGGAUAUACAUGAGGAUCACCCAUGUGCUUCAGCUAGGAGACUAGCAUUGGUAGAAGGGAGUACUC [Mod of lroppy 5 - Jieux - Exclusion 3] (Eterna round: R97, puzzle: Exclusion 3) | 24.2 nM | 14.9 nM |  | 
16 | GAGUGUUGAGGAUAUACAUGAGGAUCACCCAUGUGCUUCAGCUAGGAGACUAGCAUUGGUAGAAGGCAAUACUC [Mod of lroppy 6 - Jieux - Exclusion 3] (Eterna round: R97, puzzle: Exclusion 3) | 90.7 nM | 14.8 nM |  | 
17 | GAUACACAUGAGGAUCACCCAUGUGAGGAUAUGGAGGAGUUGCGAGUAAGCGAUGGAUCCAGAAGGCGCGUGAG [JR_Ex1_Sub082] (Eterna round: R97, puzzle: Exclusion 1) | 73.2 nM | 64.2 nM |  | 

Row | Sequence | apparent KD of MS2 coat protein (input ligand: FMN 200 uM) | apparent KD of MS2 coat protein (input ligand: none) | apparent KD of MS2 coat protein [1] | further results
18 | GAUAGACAUGAGGAUCACCCAUGUGAGGAUAUGCGUACGUUGUCCGUAGGCGACGUGCGCAGAAGGCGCGAGGU [Mat - Mod of JL D93] (puzzle: Exclusion 1) |  |  | 42.5 nM | 
19 | GAUAGAGAGCAGGAUAUCAUAGAAAUGUAUGAAUGAGAAGGGCUCACAUGAGGAUCACCCAUGUGGUCCUAGAU [JL Dibiri mod 19] (Eterna round: R96, puzzle: Exclusion 6) |  |  |  | apparent KD of MS2 coat protein [4]: 23.4 nM
20 | GAUAGAGAGCAGGAUAUCAUAGAAAUGUAUGAAUGAGAAGGGCUCACAUGAGGAUCACCCAUGUGGUCCUAGAU [JL Dibiri mod 19] (puzzle: Exclusion 6) |  |  | 22.4 nM | apparent KD of MS2 coat protein [2]: 135 nM; apparent KD of MS2 coat protein [3]: 21.1 nM
21 | GAUAGAGAGCAGGAUAUCUUGGGUAAGUGUUGUAGAGAAGGGCUCACAUGAGGAUCACCCAUGUGGUCCAAGAU [JL Dibiri mod 07] (puzzle: Exclusion 6) |  |  | 16.9 nM | apparent KD of MS2 coat protein [2]: 35.2 nM; apparent KD of MS2 coat protein [3]: 17.2 nM
22 | GAUAGAGCAGGAUAUUCAAUAUAUCACAUGAGGAUCACCCAUGUCCAGCGAAAGCUGGAGGGAGAAGGGCUCUAUC [Mat - Exclusion 5 - Eli mod - D99] (puzzle: Exclusion 5) |  |  | 366 nM | apparent KD of MS2 coat protein [2]: 77.6 nM; apparent KD of MS2 coat protein [3]: 262 nM
23 | GAUCAACAAUCGAGCGGAUACAUGAGGAUCACCCAUGUCCGUAGUCGGGUAAAUAACAAGCUUUUUUCGCCGUCCCU [Eternabot (Original) Solution 42] (Eterna round: R97, puzzle: Sensor, turn-off variant 1) | 15.4 nM | 14.9 nM |  | 
24 | GAUCAACAUGAGGAUCACCCAUGUCAGGAUAUCUAUCAAGUGAGCCUAUCACAAUUUGGGAGAAGGGACCUAAU [Eternabot (L2) Solution 51] (Eterna round: R97, puzzle: Exclusion 1) | 35.1 nM | 35.8 nM |  | 
25 | GAUCAUGCAGGAUAUACAGUAACCAUGAAAACAUGGUUGCUACAUGAGGAUCACCCAUGUAGAAGGGCAUGAUC [Omei Ex2 A2] (Eterna round: R97, puzzle: Exclusion 2) | 17.9 nM | 16.9 nM |  | 
26 | GAUCAUGCAGGAUAUACAUGGAACAUUAAAUCAUGAAUUCUACAUGAGGAUCACCCAUGUAGAAGGGCAUGAUC [Omei Ex2 A17] (Eterna round: R97, puzzle: Exclusion 2) | 169 nM | 72.1 nM |  | 
27 | GAUCAUGCAGGAUAUACAUUAACCAUGAAAACAUGGUUGUCACAUGAGGAUCACCCAUGUAGAAGGGCAUGAUC [Omei Ex2 A6] (Eterna round: R97, puzzle: Exclusion 2) | 37.2 nM | 23.5 nM |  | 
28 | GAUCCACAUGAGGAUCACCCAUGUGAGGAUAUGAUACUAUGUACUUCGGUACAUAGUAUCAGAAGGCAUAUUGA [Ex1-3: 46] (puzzle: Exclusion 1) |  |  | 36.3 nM | 
29 | GAUCCACAUGAGGAUCACCCAUGUGAGGAUAUGUCCAUAUUCGGCAAAUCGGAUAUGGACAGAAGGCACACCGG [JR_Exclusion1_Sub012] (puzzle: Exclusion 1) |  |  | 104 nM | 
30 | GAUCCGUUAGGAUAUACAGGAUUCACGCCUGAGUGAAUGUAGUAGAAGGAACAUGAGGAUCACCCAUGUGGUAU [Eternabot (L1) Solution 85] (Eterna round: R97, puzzle: Exclusion 4) | 83.2 nM | 40.5 nM |  | 
31 | GAUCCUUAAGUCAGGAUAUCAAGCAAACUCUAAAUUGAGAAGGGACAUGAGGAUCACCCAUGUCACCGAAAUAA [Zabema] (puzzle: Brourd's mod of Exclusion 4) |  |  | 13 nM | 
32 | GAUCCUUCUGUUAGGAUAUGCUUCGGGCUUCCGCUGCAGAAGGAACAUGAGGAUCACCCAUGUCAAAUAAAAUC [JL-BMX4-4.38 ViennaUCT mod] (Eterna round: R97, puzzle: Brourd's mod of Exclusion 4) | 48.5 nM | 17.8 nM |  | 
33 | GAUCCUUUGACGGACGUCUCGAAACAUGAGGAUCACCCAUGUGAGGAUAUCUCCGAGAGGUCGGCAGAGAAGGCACAUGAACAA [MOD3 Eternabot solution 19 score 84.66] (Eterna round: R96, puzzle: Exclusion NG 3) | 123 nM | 19.8 nM |  | apparent KD of MS2 coat protein [4]: 16.5 nM

From the supplement of paper PMC9170038
